# In FireProtDB (doi:10.1021/cb5003762):
# Where “and” joins values, the source holds several entries; their conditions need not be identical. Identical values can stand only once.
# B1: Histone deacetylase 8, Q9BY41 (parent)
# chain: MEEPEEPADSGQSLVPVYIYSPEYVSMCDSLAKIPKRASMVHSLIEAYALHKQMRIVKPKVASMEEMATFHTDAYLQHLQKVSQEGDDDHPDSIEYGLGYDCPATEGIFDYAAAIGGATITAAQCLIDGMCKVAINWSGGWHHAKKDEASGFCYLNDAVLGILRLRRKFERILYVDLDLHHGDGVEDAFSFTSKVMTVSLHKFSPGFFPGTGDVSDVGLGKGRYYSVNVPIQDGIQDEKYYQICESVLKEVYQAFNPKAVVLQLGADTIAGDPMCSFNMTPVGIGKCLKYILQWQLATLILGGGGYNLANTARCWTYLTGVILGKTLSSEIPDHEFFTAYGPDYVLEITPSCRPDRNEPHRIQQILNYIKGNLKHVV
# Variants of: B1
# Details: Homo sapiens; pH 7.5; Thermal; fluorescence; Hepes 25 mM; KCl 150 mM; structure 2V5W; whole UniProt chain shown
row,Variant,Tm
1,MEEPEEPADSGQSLVPVYIYSPEYVSMCDSLAKIPKRASMVHSLIEAYALHKQMRIVKPKVASMEEMATFHTDAYLQHLQKVSQEGDDDHPDSIEYGLGYDCPATEGIFDYAAAIGGATITAAQCLIDGMCKVAINWSGGWHHAKKDEASGFFYLNDAVLGILRLRRKFERILYVDLDLHHGDGVEDAFSFTSKVMTVSLHKFSPGFFPGTGDVSDVGLGKGRYYSVNVPIQDGIQDEKYYQICESVLKEVYQAFNPKAVVLQLGADTIAGDPMCSFNMTPVGIGKCLKYILQWQLATLILGGGGYNLANTARCWTYLTGVILGKTLSSEIPDHEFFTAYGPDYVLEITPSCRPDRNEPHRIQQILNYIKGNLKHVV [C153F],50.6 °C
2,MEEPEEPADSGQSLVPVYIYSPEYVSMCDSLAKIPKRASMVHSLIEAYALHKQMRIVKPKVASMEEMATFHTDAYLQHLQKVSQEGDDDHPDSIEYGLGYDCPATEGIFDYAAAIGGATITAAQCLIDGMCKVAINWSGGWHHAKKDEASGFCYLNDAVLGILRLRRKFERILYVDLDLHHGDGVEDTFSFTSKVMTVSLHKFSPGFFPGTGDVSDVGLGKGRYYSVNVPIQDGIQDEKYYQICESVLKEVYQAFNPKAVVLQLGADTIAGDPMCSFNMTPVGIGKCLKYILQWQLATLILGGGGYNLANTARCWTYLTGVILGKTLSSEIPDHEFFTAYGPDYVLEITPSCRPDRNEPHRIQQILNYIKGNLKHVV [A188T],46.5 °C and 50.6 °C
